Experimental data published in patent US20240425589A1 (Chugai, published 2024).

Experiments:
[1] = target: T1, hCLDN3/BaF3; assay: flow cytometry on hCLDN3/BaF3 cells, detection with Alexa Fluor 488 anti-human IgG
T1 construct: also called human CLDN3 on Ba/F3 cells
T1 membrane protein: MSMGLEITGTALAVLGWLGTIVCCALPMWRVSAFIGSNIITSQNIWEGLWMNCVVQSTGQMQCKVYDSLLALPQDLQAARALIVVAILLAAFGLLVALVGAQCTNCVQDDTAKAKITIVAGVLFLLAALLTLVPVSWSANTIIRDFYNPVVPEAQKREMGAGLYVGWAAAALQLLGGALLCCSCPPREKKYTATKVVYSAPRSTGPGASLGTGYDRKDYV

[2] = target: T2, hCLDN4/BaF3; assay: flow cytometry on hCLDN4/BaF3 cells, detection with Alexa Fluor 488 anti-human IgG
T2 construct: also called human CLDN4 on Ba/F3 cells
T2 membrane protein: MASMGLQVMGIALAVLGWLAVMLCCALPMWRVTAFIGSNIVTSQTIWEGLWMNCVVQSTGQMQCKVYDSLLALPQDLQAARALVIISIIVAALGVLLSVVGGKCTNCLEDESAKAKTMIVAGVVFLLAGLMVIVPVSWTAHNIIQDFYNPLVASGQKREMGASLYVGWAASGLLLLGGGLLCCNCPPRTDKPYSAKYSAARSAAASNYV

[3] = target: T3, hCLDN9/BaF3; assay: flow cytometry on hCLDN9/BaF3 cells, detection with Alexa Fluor 488 anti-human IgG
T3 construct: also called human CLDN9 on Ba/F3 cells
T3 membrane protein: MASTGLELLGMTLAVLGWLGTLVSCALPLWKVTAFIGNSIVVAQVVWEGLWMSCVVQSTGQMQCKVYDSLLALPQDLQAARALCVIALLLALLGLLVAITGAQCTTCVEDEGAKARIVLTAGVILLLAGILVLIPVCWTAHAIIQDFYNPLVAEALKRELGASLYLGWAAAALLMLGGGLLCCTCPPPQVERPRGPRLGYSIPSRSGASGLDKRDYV

[4] = target: T4, human CLDN6 on Ba/F3 cells (hCLDN6/BaF) (human, UniProt P56747 1-220); assay: flow cytometry on hCLDN6/BaF3 cells, detection with Alexa Fluor 488 anti-human IgG
T4 construct: also called human Claudin-6
T4 chain: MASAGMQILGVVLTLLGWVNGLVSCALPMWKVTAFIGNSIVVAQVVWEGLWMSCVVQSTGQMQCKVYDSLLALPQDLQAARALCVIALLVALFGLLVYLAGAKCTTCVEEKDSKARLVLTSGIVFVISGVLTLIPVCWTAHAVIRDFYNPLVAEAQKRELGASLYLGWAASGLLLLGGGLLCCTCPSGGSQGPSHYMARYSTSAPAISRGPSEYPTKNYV

[5] = target: T5, recombinant cyno CD3eg (cynomolgus monkey); assay: SPR Biacore 8K, 25 C, pH 7.4, antibody captured by anti-human Fc on CM4 chip, CD3eg injected at 500 and 2000 nM, 1:1 fit
T5 construct: Construct not described; also called cyno CD3eg (gamma and epsilon subunits of CD3)

[6] = target: T6, human CD3eg linker (human); assay: as above
T6 construct: Single-chain construct: CD3 gamma and epsilon subunits joined by a 29-mer linker, Flag-tag at the C-terminal end of the gamma subunit; also called recombinant human CD3; gamma and epsilon subunits of the human CD3 complex linked by a 29-mer linker, Flag-tag
T6 chain: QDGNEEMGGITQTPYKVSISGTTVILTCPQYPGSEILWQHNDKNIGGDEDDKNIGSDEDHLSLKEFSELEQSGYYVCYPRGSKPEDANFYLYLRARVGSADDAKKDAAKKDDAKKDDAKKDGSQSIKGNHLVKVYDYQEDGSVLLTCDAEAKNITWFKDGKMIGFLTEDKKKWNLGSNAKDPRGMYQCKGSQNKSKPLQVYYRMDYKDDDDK

[7] = target: cyno CLDN6 VLP (virus-like particle) (cynomolgus monkey)
[8] = target: T7, human CLDN6 VLP (virus-like particle) (human, UniProt P56747 1-220); assay: SPR Biacore T200, 25 C, pH 7.4, CLDN6 VLP captured by anti-human CD81 on C1 chip, antibody injected at 50 and 200 nM, 1:1 fit
T7 chain: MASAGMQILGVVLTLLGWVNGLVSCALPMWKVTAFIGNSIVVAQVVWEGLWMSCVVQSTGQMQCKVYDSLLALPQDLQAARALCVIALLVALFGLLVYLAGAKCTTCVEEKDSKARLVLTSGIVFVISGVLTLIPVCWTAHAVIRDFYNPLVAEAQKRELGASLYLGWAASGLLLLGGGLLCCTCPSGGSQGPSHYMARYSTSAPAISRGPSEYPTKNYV

[9] = target: T8, recombinant cyno CD137 (cynomolgus monkey, UniProt A9YYE7 24-186); assay: SPR Biacore 8K, 37 C, pH 7.4, antibody captured by anti-human Fc on CM4 chip, CD137 injected at 500 and 2000 nM, 1:1 fit
T8 sequence: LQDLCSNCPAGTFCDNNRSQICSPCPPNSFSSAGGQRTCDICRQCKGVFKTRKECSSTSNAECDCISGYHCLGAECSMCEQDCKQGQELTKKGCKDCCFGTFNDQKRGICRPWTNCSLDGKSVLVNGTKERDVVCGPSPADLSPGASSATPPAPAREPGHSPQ

[10] = target: T9, Human CD137 extracellular domain (ECD) with hexahistidine (His-tag) and biotin acceptor peptide (BAP) (human); assay: as above
T9 construct: Expressed in FreeStyle293F cells; also called recombinant human CD137; human CD137 ECD; not shown: C-terminal hexahistidine tag and biotin acceptor peptide (BAP)
T9 sequence (chain, as listed by the source): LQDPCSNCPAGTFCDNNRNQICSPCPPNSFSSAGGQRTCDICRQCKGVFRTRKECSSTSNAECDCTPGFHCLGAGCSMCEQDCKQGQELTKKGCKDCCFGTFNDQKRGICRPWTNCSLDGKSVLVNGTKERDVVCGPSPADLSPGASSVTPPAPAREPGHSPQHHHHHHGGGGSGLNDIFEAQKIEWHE

T5 sequence (Q95LI5 22-117, chain 1 of 2): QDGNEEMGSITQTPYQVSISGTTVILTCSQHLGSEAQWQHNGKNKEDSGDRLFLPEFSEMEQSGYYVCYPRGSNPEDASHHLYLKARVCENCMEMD
T5 sequence (Q95LI7 23-113, chain 2 of 2, further chain): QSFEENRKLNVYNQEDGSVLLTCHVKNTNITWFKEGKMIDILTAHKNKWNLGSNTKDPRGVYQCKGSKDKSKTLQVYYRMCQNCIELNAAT

B1: CS2961 (bispecific antibody, V domains shown)
VH 1: QVQLVESGGGVVQPGGSLRLSCAASGFTFSSYTMSWVREAPGQGLEWMGTISSGGGRTYYPDSVKGRFTISRDNSKNTLYLQMNSLRDEDTAVYYCARGDYRYDGFAYWGEGTLVTVSS
VL 1: DIQMTQSPSSLSASVGDRVTITCRASYNIDSYLAWYQKKPGKAPELLIYYSTLLVDGVPDRFSGSRSGTDFTLTISSLQPEDFATYYCQHYYSIPYTFGQGTKVEIE
VH 2: QVQLVESGGGVVQPGGSLRLSCAASGFTFSNAWMHWVRKAPGKGLEWVAQIKDKSQNYATYVAESVKGRFTISRADSKNSIYLQMNSLKTEDTAVYYCRYVHYAAGYGVDIWGQGTTVTVSS
VL 2: DIVMTQSPLSLPVTPGEPASISCRSSQPLVHSNRNTYLHWYQEKPGQAPRLLIYKVSNRFSGVPDRFSGSGSGTDFTLKISRVEAEDVGVYYCGQGTQVPYTFGQGTKLEIK
notes: detected with anti-human IgG; also called anti-CLDN6/CD3 bispecific antibody (CS2961)
binding result [1]: no binding (tested: 15 micro g/ml)
binding result [2]: no binding (tested: 15 micro g/ml)
binding result [3]: no binding (tested: 15 micro g/ml)

B2: 6PHU3/TR01 (bispecific antibody, V domains shown)
VH 1: EVQLQQSGPELVKPGASMKISCKASGYSFTGYTMNWVKQSHGKNLEWIGLINPYNGGTIYNQKFKGKATLTVDKSSSTAYMELLSLTSEDSAVYYCARDYGFVLDYWGQGTTLTVSS
VL 1: DIVLTQSPSIMSVSPGEKVTITCSASSSVSYMHWFQQKPGTSPKLCIYSTSNLASGVPARFSGRGSGTSYSLTISRVAAEDAATYYCQQRSNYPPWTFGGGTKLEIK
VH 2: QVQLVESGGGVVQPGGSLRLSCAASGFTFSNAWMHWVRQAPGKGLEWVAQIKDKSQNYATYVAESVKGRFTISRADSKNSIYLQMNSLKTEDTAVYYCRYVHYAAGYGVDIWGQGTTVTVSS
VL 2: DIVMTQSPLSLPVTPGEPASISCRSSQPLVHSNRNTYLHWYQQKPGQAPRLLIYKVSNRFSGVPDRFSGSGSGTDFTLKISRVEAEDVGVYYCGQGTQVPYTFGQGTKLEIK
notes: also called anti-CLDN6/CD3 bispecific antibody (6PHU3/TR01)
binding result [1]: no binding (tested: 15 micro g/ml)
binding result [2]: no binding (tested: 15 micro g/ml)

B3: KLH/TR01 (bispecific antibody, V domains shown)
VH 1: QVQLQQSGPQLVRPGASVKISCKASGYSFTSYWMHWVNQRPGQGLEWIGMIDPSYSETRLNQKFKDKATLTVDKSSSTAYMQLSSPTSEDSAVYYCALYGNYFDYWGQGTTLTVSS
VL 1: DIQMTQSSSSFSVSLGDRVTITCKASEDIYNRLAWYQQKPGNAPRLLISGATSLETGVPSRFSGSGSGKDYTLSITSLQTEDVATYYCQQYWSTPYTFGGGTKLEVK
VH 2: QVQLVESGGGVVQPGGSLRLSCAASGFTFSNAWMHWVRQAPGKGLEWVAQIKDKSQNYATYVAESVKGRFTISRADSKNSIYLQMNSLKTEDTAVYYCRYVHYAAGYGVDIWGQGTTVTVSS
VL 2: DIVMTQSPLSLPVTPGEPASISCRSSQPLVHSNRNTYLHWYQQKPGQAPRLLIYKVSNRFSGVPDRFSGSGSGTDFTLKISRVEAEDVGVYYCGQGTQVPYTFGQGTKLEIK
notes: also called negative control
binding result [4]: no binding (tested: 15 micro g/ml)
binding result [3]: no binding (tested: 15 micro g/ml)

B4: PPU4135 (bispecific antibody, human IgG1, kappa, L234A L235A, N297A)
heavy 1: QVQLVESGGGVVQPGGSLRLSCAASGFTFSSYTMSWVRQAPGQGLEWMGTISSGGGRTYYPDSVKGRFTISRDNSKNTLYLQMNSLRDEDTAVYYCARGDYRYDGFAYWGEGTLVTVSSASTKGPSVFPLAPSSKSTSGGTAALGCLVEDYFPEPVTVSWNSGALTSGVHTFPAVLESSGLYSLSSVVTVPSSSLGTQTYICNVNHKPSNTKVDKRVEPKSCDKTHTCPPCPAPEAAGGPSVFLFPPKPKDTLMISRTPEVTCVVVDVSHEDPEVKFNWYVDGVEVHNAKTKPREEQYASTYRVVSVLTVLHQDWLNGKEYKCKVSNKALPAPIEKTISKAKGQPREPQVYTLPPSREEMTKNQVSLTCLVKGFYPSDIAVEWESNGQPENNYKTTPPVLDSDGSFFLYSKLTVDKSRWQQGNVFSCSVMHEALHNHYTQESLSLSP
light 1: DIQMTQSPSSLSASVGDRVTITCRASYNIDSYLAWYQQKPGKAPELLIYYSTLLVDGVPDRFSGSRSGTDFTLTISSLQPEDFATYYCQHYYSIPYTFGQGTKVEIERTVAAPSVFIFPPSDEQLKSGTAKVVCLLNNFYPREAKVQWKVDNALQSGNSKESVTEQDSKDSTYSLSSTLTLSKADYEKHKVYACEVTHQGLSSPVTKSFNRGEC
heavy 2: QVQLVESGGGLVQPGRSLRLSCAASGFKFSNVWFHWVRQAPGKGLEWVAQIKDYYNAYAAYYAPSVKGRFTISRDDSKNSIYLQMNSLKTEDTAVYYCHYVHYASASTLLPAEGVDAWGQGTTVTVSSASTKGPSVFPLAPSSKSTSGGTAALGCLVKDYFPEPVTVSWNSGALTSGVHTFPAVLKSSGLYSLSSVVTVPSSSLGTQTYICNVNHKPSNTKVDKRVEPKSCDKTHTCPPCPAPEAAGGPSVFLFPPKPKDTLMISRTPEVTCVVVDVSHEDPEVKFNWYVDGVEVHNAKTKPREEQYASTYRVVSVLTVLHQDWLNGKEYKCKVSNKALPAPIEKTISKAKGQPREPQVYTLPPSRKEMTKNQVSLTCLVKGFYPSDIAVEWESNGQPENNYKTTPPVLDSDGSFFLYSKLTVDKSRWQQGNVFSCSVMHEALHNHYTQKSLSLSP
light 2: DIVMTQSPLSLPVTPGEPASISCQPSQEVVHMNRNTYLHWYQQKPGQAPRLLIYKVSNRFPGVPDRFSGSGSGTDFTLKISRVEAEDVGVYYCAQGTSHPFTFGQGTKLEIKRTVAAPSVFIFPPSDEQLKSGTAEVVCLLNNFYPREAKVQWKVDNALQSGNSEESVTEQDSKDSTYSLSSTLTLSKADYEKHKVYACEVTHQGLSSPVTKSFNRGEC
notes: also called CS4135; Ab03
Kd [5]: 329 nM
koff [5]: 0.0332 s⁻¹
kon [5]: 101000 M⁻¹ s⁻¹
Kd [6]: 341 nM
koff [6]: 0.0266 s⁻¹
kon [6]: 78000 M⁻¹ s⁻¹
Kd [7]: 3.77 nM
koff [7]: 0.000821 s⁻¹
kon [7]: 218000 M⁻¹ s⁻¹
Kd [8]: 3.65 nM
koff [8]: 0.000794 s⁻¹
kon [8]: 217000 M⁻¹ s⁻¹
Kd [9]: 174 nM
koff [9]: 0.00146 s⁻¹
kon [9]: 8350 M⁻¹ s⁻¹
Kd [10]: 46.8 nM
koff [10]: 0.000591 s⁻¹
kon [10]: 12600 M⁻¹ s⁻¹
